Test results published in patent US20230203158A1.

Columns and labels:
[1] = molecular target: human TNFα (human) (UniProt P01375); assay: cell-based or functional assay
[2] = molecular target: IL-10 receptor of HEK-BLUE IL-10 cells (the cells express all the components of the IL-10 signaling pathway); assay: cell-based or functional assay

Chain of human TNFα (human) (P01375 77-233 limits assumed): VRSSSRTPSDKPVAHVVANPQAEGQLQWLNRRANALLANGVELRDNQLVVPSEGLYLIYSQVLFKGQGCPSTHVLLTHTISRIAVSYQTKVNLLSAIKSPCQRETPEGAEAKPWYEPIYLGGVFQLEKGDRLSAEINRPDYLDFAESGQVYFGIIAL

Row | Substance | IC50 (nM, replicate 2), inhibition of TNFα signaling in HEK-BLUE TNFα cells [1] | EC50 (pM), HEK-BLUE IL-10 signaling assay (SEAP) [2]
1 | Etanercept (PRO078) (Fc fusion) | 0.07 nM | –
2 | recombinant human IL-10 (BioLegend #573204) (from UniProt P22301 19-178) (ligand) | – | 21 pM
